Laboratory results reported in paper PMC5454376 (2017).

B1: Human His-Gαi3 WT [human] / Fluorescein-labelled GIV peptide (residues 1,671–1,701) [modified: 5,6-carboxyfluorescein coupled to the resin-bound peptide after chain elongation; 5,6-carboxyfluorescein coupled to the resin-bound peptide … (parent complex)
chain 1: MGCTLSAEDKAAVERSKMIDRNLREDGEKAAKEVKLLLLGAGESGKSTIVKQMKIIHEDGYSEDECKQYKVVVYSNTIQSIIAIIRAMGRLKIDFGEAARADDARQLFVLAGSAEEGVMTPELAGVIKRLWRDGGVQACFSRSREYQLNDSASYYLNDLDRISQSNYIPTQQDVLRTRVKTTGIVETHFTFKDLYFKMFDVGGQRSERKKWIHCFEGVTAIIFCVALSDYDLVLAEDEEMNRMHESMKLFDSICNNKWFTETSIILFLNKKDLFEEKIKRSPLTICYPEYTGSNTYEEAAAYIQCQFEDLNRRKDTKEIYTHFTCATDTKNVQFVFDAVTDVIIKNNLKECGLY
chain 2: KTGSPGSEVVTLQQFLEESNKLTSVQIKSSS

Variants of: B1
Assay: fluorescence polarisation

Variant | Kd [µM]
chain 1 MGCTLSAEDKAAVERSKMIDRNLREDGEKAAKEVKLALLGAGESGKSTIVKQMKIIHEDGYSEDECKQYKVVVYSNTIQSIIAIIRAMGRLKIDFGEAARADDARQLFVLAGSAEEGVMTPELAGVIKRLWRDGGVQACFSRSREYQLNDSASYYLNDLDRISQSNYIPTQQDVLRTRVKTTGIVETHFTFKDLYFKMFDVGGQRSERKKWIHCFEGVTAIIFCVALSDYDLVLAEDEEMNRMHESMKLFDSICNNKWFTETSIILFLNKKDLFEEKIKRSPLTICYPEYTGSNTYEEAAAYIQCQFEDLNRRKDTKEIYTHFTCATDTKNVQFVFDAVTDVIIKNNLKECGLY [chain 1 L37A] | 0.478
chain 1 MGCTLSAEDKAAVERSKMIDRNLREDGEKAAKEVKLLLAGAGESGKSTIVKQMKIIHEDGYSEDECKQYKVVVYSNTIQSIIAIIRAMGRLKIDFGEAARADDARQLFVLAGSAEEGVMTPELAGVIKRLWRDGGVQACFSRSREYQLNDSASYYLNDLDRISQSNYIPTQQDVLRTRVKTTGIVETHFTFKDLYFKMFDVGGQRSERKKWIHCFEGVTAIIFCVALSDYDLVLAEDEEMNRMHESMKLFDSICNNKWFTETSIILFLNKKDLFEEKIKRSPLTICYPEYTGSNTYEEAAAYIQCQFEDLNRRKDTKEIYTHFTCATDTKNVQFVFDAVTDVIIKNNLKECGLY [chain 1 L39A] | 3.08
chain 1 MGCTLSAEDKAAVERSKMIDRNLREDGEKAAKEVKLLLLGAGESGKSTIVKQMKIIHEDGYSEDECKQYKVVVYSNTIQSIIAIIRAMGRLKIDFGEAARADDARQLFVLAGSAEEGVMTPELAGVIKRLWRDGGVQACFSRSREYQLNDSASYYLNDLDRISQSNYIPTQQDVLRTRVKTTGIVETHFTFKDLYFKMFDVGGQRSERKKWIHCFEGVTAIIFCVALSDYDLVLAEDEEMNRMHESMKLFDSICNNAWFTETSIILFLNKKDLFEEKIKRSPLTICYPEYTGSNTYEEAAAYIQCQFEDLNRRKDTKEIYTHFTCATDTKNVQFVFDAVTDVIIKNNLKECGLY [chain 1 K257A] | 0.87
chain 1 MGCTLSAEDKAAVERSKMIDRNLREDGEKAAKEVKLLLLGAGESGKSTIVKQMKIIHEDGYSEDECKQYKVVVYSNTIQSIIAIIRAMGRLKIDFGEAARADDARQLFVLAGSAEEGVMTPELAGVIKRLWRDGGVQACFSRSREYQLNDSASYYLNDLDRISQSNYIPTQQDVLRTRVKTTGIVETHFTFKDLYFKMFDVGGQRSERKKWIHCFEGVTAIIFCVALSDYDLVLAEDEEMNRMHESMKLFDSICNNKWATETSIILFLNKKDLFEEKIKRSPLTICYPEYTGSNTYEEAAAYIQCQFEDLNRRKDTKEIYTHFTCATDTKNVQFVFDAVTDVIIKNNLKECGLY [chain 1 F259A] | 1.26
chain 1 MGCTLSAEDKAAVERSKMIDRNLREDGEKAAKEVKALLLGAGESGKSTIVKQMKIIHEDGYSEDECKQYKVVVYSNTIQSIIAIIRAMGRLKIDFGEAARADDARQLFVLAGSAEEGVMTPELAGVIKRLWRDGGVQACFSRSREYQLNDSASYYLNDLDRISQSNYIPTQQDVLRTRVKTTGIVETHFTFKDLYFKMFDVGGQRSERKKWIHCFEGVTAIIFCVALSDYDLVLAEDEEMNRMHESMKLFDSICNNKWFTETSIILFLNKKDLFEEKIKRSPLTICYPEYTGSNTYEEAAAYIQCQFEDLNRRKDTKEIYTHFTCATDTKNVQFVFDAVTDVIIKNNLKECGLY [chain 1 L36A] | 0.706

More lines, now with the values ahead:

Kd [µM] | Variant
0.243 | chain 1 MGCTLSAEDKAAVERSKMIDRNLREDGEKAAKEVKLLLLGAGESGKSTIVKQMKIIHEDGYSEDECKQYKVVVYSNTIQSIIAIIRAMGRLKIDFGEAARADDARQLFVLAGSAEEGVMTPELAGVIKRLWRDGGVQACFSRSREYQLNDSASYYLNDLDRISQSNYIPTQQDVLRTRVKTTGIVETHFTFKDLYFKMFDVGGQRSERKKWIHCFEGVTAIIFCVALSDYDLVLAEDEEMNRMHESMKLFDAICNNKWFTETSIILFLNKKDLFEEKIKRSPLTICYPEYTGSNTYEEAAAYIQCQFEDLNRRKDTKEIYTHFTCATDTKNVQFVFDAVTDVIIKNNLKECGLY [chain 1 S252A]
1.82 | chain 1 MGCTLSAEDKAAVERSKMIDRNLREDGEKAAKEVKLLLLGAGESGKSTIVKQMKIIHEDGYSEDECKQYKVVVYSNTIQSIIAIIRAMGRLKIDFGEAARADDARQLFVLAGSAEEGVMTPELAGVIKRLWRDGGVQACFSRSREYQLNDSASYYLNDLDRISQSNYIPTQQDVLRTRVKTTGIVETHFTFKDLYFKMFDVGGQRSERKKWIHCFEGVTAIIFCVALSDYDLVLAEDEEMNRMHESMKLFDSICNNKFFTETSIILFLNKKDLFEEKIKRSPLTICYPEYTGSNTYEEAAAYIQCQFEDLNRRKDTKEIYTHFTCATDTKNVQFVFDAVTDVIIKNNLKECGLY [chain 1 W258F]
0.362 | chain 1 MGCTLSAEDKAAVERSKMIDRNLREDGEKAAKEVKLLLLGAGESGKSTIVKQMKIIHEDGYSEDECKQYKVVVYSNTIQSIIAIIRAMGRLKIDFGEAARADDARQLFVLAGSAEEGVMTPELAGVIKRLWRDGGVQACFSRSREYQLNDSASYYLNDLDRISQSNYIPTQQDVLRTRVKTTGIVETHFTFKDLYFKMFDVGGQRSERKKWIHCFEGATAIIFCVALSDYDLVLAEDEEMNRMHESMKLFDSICNNKWFTETSIILFLNKKDLFEEKIKRSPLTICYPEYTGSNTYEEAAAYIQCQFEDLNRRKDTKEIYTHFTCATDTKNVQFVFDAVTDVIIKNNLKECGLY [chain 1 V218A]
